The record followed here is patent publication US20220204613A1 (D 10 THERAPEUTICS, published 2022).

Broadly, the EC50 is the concentration that produces a half-maximal response. A high value points to lower potency in that assay. One may read the Kd as the equilibrium constant for the complex coming apart. Lower therefore signals a tighter complex. Broadly, the koff is the rate constant with which the complex falls apart. A lower koff goes with slow dissociation. By kon is commonly meant the rate constant with which the complex forms.

Assay [1] addresses T1, human CD47 protein (human, UniProt Q08722 19-139, limits assumed).
T1 construct: also called human CD47 antigen
In words: ELISA on human CD47 protein, antibody 2.06E-02 ug/ml.

The target in assay [2] is T1, human CD47 protein. In words: ELISA on human CD47 protein, antibody 5.56E-01 ug/ml. In general terms: ELISA stands for enzyme-linked immunosorbent assay.
Assay [3] has as its target T1, human CD47 protein. The assay is described as follows: ELISA on human CD47 protein, antibody 45 ug/ml.
Assay [4] deals with T1, human CD47 protein. The assay is described as follows: ELISA on human CD47 protein, OD450nm against log Ab conc; EC50 row of the table drawn under the plot; fit of the flat control curve.
Assay [5] has as its target T1, human CD47 protein. In words: ELISA on human CD47 protein, antibody 15 ug/ml.
In assay [6] the target is T1, human CD47 protein. In words: ELISA on human CD47 protein, antibody 1.67E+00 ug/ml.
Assay [7] addresses T1, human CD47 protein. The assay is described as follows: ELISA on human CD47 protein, antibody 5.00E+00 ug/ml.
The target in assay [8] is T1, human CD47 protein. In words: ELISA on human CD47 protein, antibody 2.29E-03 ug/ml.
For assay [9], the target named is T1, human CD47 protein. In words: ELISA on human CD47 protein, antibody 6.86E-03 ug/ml.
In assay [10] the target is T1, human CD47 protein. In words: ELISA on human CD47 protein, antibody 7.62E-04 ug/ml.
The target of assay [11] is T1, human CD47 protein. The assay is described as follows: ELISA on human CD47 protein, antibody 1.85E-01 ug/ml.
The target of assay [12] is T1, human CD47 protein. In words: ELISA on human CD47 protein, antibody 6.17E-02 ug/ml.
The target in assay [13] is T1, human CD47 protein. The assay is described as follows: ELISA on human CD47 protein, OD450nm against log Ab conc; EC50 row of the table drawn under the plot; the curve has no lower plateau in the range shown.
Assay [14] addresses T1, human CD47 protein. The assay is described as follows: ELISA on human CD47 protein, antibody 0 ug/ml (blank).
Assay [15] deals with T1, human CD47 protein. In words: SPR Biacore, purified IgG Fc-captured, human CD47 analyte 0.3125-10 nM. The text has this:
Affinity measurement of purified humanized IgGs. The affinity of purified antibody binding to human CD47 was individually determined using a Surface Plasmon Resonance (SPR) biosensor, Biacore® T200/8K (GE Healthcare). Antibodies were captured on the sensor chip through Fc capture method. Human CD47 protein was used as the analyte. The data of dissociation (kd) and association (ka) rate constants were obtained using Biacore T200/8K evaluation software. The equilibrium dissociation constants (KD) were calculated from the ratio of kd over ka.
(In general: In SPR one partner is held on a chip, and binding of the other changes the refractive index at the surface.)

Assay [16] concerns the target T1, human CD47 protein. The assay is described as follows: SPR Biacore, supernatant antibody Fc-captured, human CD47 analyte 5 nM. On the procedure: Production and affinity ranking of humanized antibodies. The designed plasmids of heavy chain and light chain were sent for 3 mL transfection following GenScript's SOP. For affinity ranking, Antibodies were captured on the sensor chip through Fc capture method. Human CD47 protein was used as the analyte. The surface was regenerated before the injection of another antibody. The process was repeated until all antibodies were analyzed. The off-rates of antibodies were obtained from fitting the experimental data locally to 1:1 interaction model using the Biacore® T200/8K evaluation software. The antibodies were ranked by their dissociation rate constants (off-rates, kd).

T1 sequence (Q08722 19-139 limits assumed): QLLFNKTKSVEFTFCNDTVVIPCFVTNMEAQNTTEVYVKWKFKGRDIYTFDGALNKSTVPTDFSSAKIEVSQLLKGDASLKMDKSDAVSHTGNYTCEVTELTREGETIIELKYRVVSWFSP

For Isotype control (antibody), the ELISA signal with human CD47 protein [1] was 0.48; with human CD47 protein [2] it was 0.553; with human CD47 protein [3] it was 0.543; with human CD47 protein [5] it was 0.49; in the assay with human CD47 protein [6], 0.454; with human CD47 protein [7] it was 0.562. Moreover, the ELISA signal with human CD47 protein [8] was found to be 0.287; with human CD47 protein [9] it was 0.387; with human CD47 protein [10], 0.211; in the assay with human CD47 protein [11], 0.551; in the assay with human CD47 protein [12], 0.445. In addition, the EC50 with human CD47 protein [4] was 3.42 ng/mL.

B1: 32G8H6 (antibody, V domains shown)
VH: EVQLQQSGPELVKPGASVKLSCKASGYTFTSSVIHWVKQKPGQGLEWLGYINPYSDGTKFNEKCKIKATLTSDKSSSTAYMELSSLTSEDSAVYYCARGLIGTRYDSWFAYWGQGTLVTVSA
VL: DIQMTQNGSSLSASLGDRVTISCRTSQDINNYLNWYQQKQDGTVKLLIYYTSRLHSGVPSRFSGSGSGTDYSLTIRNLEQEDIATYFCQQGNTLPYTFGGGTKLEIK
notes: Mouse hybridoma antibody; also called parent mAb (32G8H6); 32G8H6 (mAb)
On to B1, for which the ELISA signal worked out at 3.33 with human CD47 protein [1]; 3.8 with human CD47 protein [2]; 3.83 with human CD47 protein [3]; 3.87 with human CD47 protein [5]; 3.71 with human CD47 protein [6]; 3.78 in the assay with human CD47 protein [7]. Besides, the ELISA signal in the assay with human CD47 protein [8] is 2.68; in the assay with human CD47 protein [9], 2.98; with human CD47 protein [10] it was 2.32; with human CD47 protein [11] it was 3.81; in the assay with human CD47 protein [14], 0.086; in the assay with human CD47 protein [12] it was 3.73. This molecule registered an EC50 in the assay with human CD47 protein [13] of 6.55 ng/mL.

B2: chimeric-VH+VL-1 (antibody, human IgG4, V domains shown)
VH: EVQLQQSGPELVKPGASVKLSCKASGYTFTSSVIHWVKQKPGQGLEWLGYINPYSDGTKFNEKCKIKATLTSDKSSSTAYMELSSLTSEDSAVYYCARGLIGTRYDSWFAYWGQGTLVTVSA
VL: DIQMTQNGSSLSASLGDRVTISCRTSQDINNYLNWYQQKQDGTVKLLIYYTSRLHSGVPSRFSGSGSGTDYSLTIRNLEQEDIATYFCQQGNTLPYTFGGGTKLEIK
notes: also called chimeric antibody
As to B2, the ELISA signal with human CD47 protein [1] worked out at 2.9; with human CD47 protein [2] it was 3.32; in the assay with human CD47 protein [3] it was 3.48; with human CD47 protein [5], 3.39; in the assay with human CD47 protein [6] it was 3.32; in the assay with human CD47 protein [7] it was 3.48. Moreover, the ELISA signal in the assay with human CD47 protein [8] came to 2.4; in the assay with human CD47 protein [9] it was 2.64; with human CD47 protein [10] it was 1.71; in the assay with human CD47 protein [11] it was 3.34; with human CD47 protein [14], 0.162; in the assay with human CD47 protein [12], 3.19. For the same molecule, the Kd with human CD47 protein [15] was found to be 0.482 nM; with human CD47 protein [16], 0.34 nM. Besides, the koff with human CD47 protein [15] was 0.00255 s⁻¹; with human CD47 protein [16] it was 0.00261 s⁻¹. Further, the kon in the assay with human CD47 protein [15] was 5.3e+06 M⁻¹ s⁻¹; with human CD47 protein [16], 7.69e+06 M⁻¹ s⁻¹.
